In the nanobody polyreactivity screen of Harvey et al. (2022):

Assay: yeast display, Sf9 membrane polyspecificity reagent, FACS + sequencing; frameworks hold sequencing errors
How it was run: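 Galactose-induced (36–48 hours) yeast carrying a synthetic nanobody display library were exposed to 10% biotinylated, detergent-solubilized Sf9 membrane reagent at 4 °C for 1 hour. FACS followed streptavidin microbead enrichment, using low and high (top ~1%) gates for expression (anti-HA) and reagent binding (streptavidin). Colony PCR, MiSeq 2 × 250 sequencing and CDR-length filtering followed. Labels for polyreactivity reflect the gate of origin.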

| Sequence | polyreactivity (PSR sort gate) |
| --- | --- |
| QVQLVESWGGLVQAGGSLRLSCAASGRTFRRNAMGWYRQSPGKERELVATISSSGGRTYYADSVKGRFTISRDNAKKTVYLQMNSLKPEDTAVYYCIKALRSYPLFYFWVQGTQVTVSS | high polyreactivity |
| QVQLVESWGGLVQAGGSLRLSCAASGRTLGRNAMGWYRQAPGKEREWVASISSGGSTNYADSVKGRFTISRDNAKNTVYLQMNSLKPEDTAVYYCNKRYRSLYSSGYDYWGQGTQVTVSS | high polyreactivity |
| QVQLVESWGGLVQAGGSLRLSCAASGRTSGNYAMGWYRQAPGKERELVAAIRYSGSSTFYADSVKGRFTISRDNAKNTVYLQMNSLKPEDTAVYYCARDIRRKGFRYDYWGQGTQVNVSS | high polyreactivity |
| QVQLVESWGGLVQAGGSLRLSCAASGSIFDNYAMGWYRQAPGKERELVAAISWSGGRTYYADSVKGRFTISRDNAKNTVYLQMNSLKPEDTAVYYCAAYVYTSFLYYYWGQGTQVTVSS | high polyreactivity |
| QVQLVESWGGLVQAGGSLRLSCAASGSIFPRNAMGWYRQAPGKERELVATISSGGSTYYADSVKGRFTISRDNAKNTVYLQMNSLKPEDTAVYYCAAEYVVRAIDVDYDYWGQGTQVTVSS | high polyreactivity |
| QVQLVESWGGLVQAGGSLRLSCAASGSIFSPYAIGWYRQAPGKERELVAAISFRASTTYYADSVKGRFTITRDNAKNTVYLQMNSLKPEDTAVYYCAASPLYSWFWGLYDYWGQGTQVTVSS | low polyreactivity |
| QVQLVESWGGLVQAGGSLRLSCAASGSIFSYYGMGRYRQARGKERELVAAITRSTGSTYYADSVKGRFTISRDNAKNTVYLQMNSLKPEDTAVYYCATDYVVLWEFDYWGQGTQVTVSS | low polyreactivity |
| QVQLVESWGGLVQAGGSLRLSCAASGSTFAVNAMGCYRQAPGKERELVDAITVSGGSTDYAYSVKRPFTISRDNAKYSVYLQLNRLKPEDTGVYYCADVRMKYYIYGGYDYWGQGTQVNVSS | low polyreactivity |
| QVQLVESWGGLVQAGGSLRLSCAASGTTFTVYAMGWYRQAPGKERELVAAISWSTGRTYYADSVKGRFTISRDHAKNTVYLQMNSLKPEDTAVYYCAARVSYYRTPAEYGYWGQGTQVTVSS | high polyreactivity |
| QVQLVESWGGLVQAGGSLRLSCAASGYIFDRYAMGWYRQAPGKERELVAAISGRGGSTYYADSVKGRFTISRDNAKNTVYLQMNSLKPEDTAVYYCARDVYVRNGQRARYDSWGQGTQVTVSS | high polyreactivity |
| QVQLVESWGGLVQAGGSLRLSCADSGRIFRGYGMGWYIQAPGKERELVAVISYSGTPTYYADSVKGRFTISRDNAKNTVYLQMNSLKAEDTAVYYCAARLYWIPPSPSRYDYWLQGTQVTVSS | high polyreactivity |
| QVQLVESWGGLVQAGGSLRLSCDASGSTFDGNDMGWSRPAPGKQRELVAAITIGGGSTYYADSVKGRFTISRDNAKNTVYLQMNSLKPEDTADYYCATEWVTGSEDYDYWGQGTQVTVSS | low polyreactivity |
| QVQLVESWGGLVQAGGSLRLSCPASGYIIQTYAMGWYRQAPGKEREFLAAMTSGAGRTSYADSVKGRFTISRDNAKNTVYLQLHRLKPEDTAVYFCAARWRYQLSGSRLSYGKYDYWGQGTQVTVSS | high polyreactivity |
| QVQLVESWGGLVQAGGSLRLSCSAYGYTFTLTPMGWSRQAPGKERELVAAISRSGGSTYYADSVKGRFTISRDNAKNTVYLQMISLKPEDTAVYYCDADGYSGYDYWGQGTLVTVSS | low polyreactivity |
| QVQLVESWGGLVQAGGSLSLSCAASGSIFAANAMGWYRQAPGKERELVAAISWSGGSTYADSVKRRFTISRDNEKNTVYLQRNSLKPEDTAVYYCAADLCSQYKFGYCGQGTQVTVSS | low polyreactivity |
| QVQLVESWGGLVQAGRSLRLSCAASGRTFYNYAMGWYRQAPGKERELVAAITRGGSTYYADSVKGRFTISRDNAKNTVYLHMNSLKPEDTAVYFCNAKYIKGRDWGQGTQVTVSS | high polyreactivity |
| QVQLVESWGGLVQEGGSLRVSCAASGSIFSHYAMGRYRQAPGKEREFVAAIPRGVSTYYADSVKGRFTISRDNAKNTVYLLMNSLKPEYTGVYSCNKTYVRGVHGVYLPITSYDYWGQGTQVTVSS | low polyreactivity |
| QVQLVESWGVLVQAGGSLRLSCAASGYTFLVYAMGWYRQAPGKERELVAGITRGSSTYADSVKGRFTISRDNAKNTVYLQMNSLKPEDTAVYYCAARFAKQDYDYWGQGTQVTVSS | high polyreactivity |
| QVQLVETGGCLVQAGCSLRLSCAASGIIFYEYAMGRYRQAPGKERELVAAIDWSGGSTYYADSVKGRFTISRDNAKNTVYLQMNRLKPEDSAVYYCAAQWAWVDYFGNWYASTYDYWGQGTQVTVSS | high polyreactivity |
| QVQLVETGGGIVQAGGSLRLSCASSGRTFNKYAMGRYRKAPGKERELVAAINYSGGRTDYADSVKGRFTISRDNAKNTVYLQMNSLKPDDTAVYYCAASPTFFVWQGYNYWGQGTQVTVSS | low polyreactivity |
| QVQLVETGGGIVQAGVSLRISCASSGRTFRWYAMGWSRQSPGKERELVAAITSGGGTYYADSVKGLFTISRDYAKNTVYLQMNRLKREDTAVYYCNKLHRDRYDYWGQGTQVTVSS | high polyreactivity |
| QVQLVETGGGLVHAGGSLRLSCAASGRTFEPNAMGWYRQAPGKERELVATISYSGGRTNYADSVKGRFTISRDNAKNTVYLQMKILKPEDTAVYYCATRTYYRRVCIRDFWGQGTLVTVSS | high polyreactivity |

| Sequence | polyreactivity (PSR sort gate) |
| --- | --- |
| QVQLVETGGGLVQAGGRLRLSCAASGRIFVYYDMGWSIQAPGKERELVAAITSGGDRTYYADSVKGRFTISRDNAKNTVYLQMNSLKPEDTAVYYCNTYYYPYGYWGQGTQVTVSS | high polyreactivity |
| QVQLVETGGGLVQAGGSHRLSCAASVRTLYKNAMGWYRQEPGKERELVAAISVSGGRTYYADSVKGRFTISRDNAKNTVYFQMNSLKPEDTAVYYCATRLYPISKYGYWGQGTQVTVSS | high polyreactivity |
| QVQLVETGGGLVQAGGSLRLICAASASTFGYYAMGWYRQAPGKERELVAGIRYRGGSTSYADSVKGRFTISRDNAKNTVYLQLNSLKREDTAVYYCANGIYRGRTSSFRMGYWGQVTQVTVSS | low polyreactivity |
| QVQLVETGGGLVQAGGSLRLSCAASGFIFIHNAMGWYRQAPGKERELVAAISYSGGSTYYADSVKGRFTISRDNEKNTVYLQMNSLKPEDTAVYYCAARGALHHWYRYDDWGQGTQVTVSS | low polyreactivity |
| QVQLVETGGGLVQAGGSLRLSCAASGFTFRPYVMGWYRQPPGKERELVAGITWDGDSTYYADSVKGRFTISRDNPKNTVYLQMNSLKPEDTAVYYCAAEDADWVSQYYYWGQGTQVTVSS | high polyreactivity |
| QVQLVETGGGLVQAGGSLRLSCAASGFTFWYNDMGWYRQPPGKEREFVAAINSGGSTNDADSVKGRFTISRDNAKNTVYLQMNSLKPEDTAVYYCNADWFTPAQPWYRYFIRYDYWGQGTQVTVSS | low polyreactivity |
| QVQLVETGGGLVQAGGSLRLSCAASGFTILGYDMGWYRQAHGKERELVAAFDYSGGSTYYADSVKGRFTISRDNAQNTVYLQMNSLKPEDTAVYYCAAYTGKGRAYFRWMDYWGQGTQVTVSS | high polyreactivity |
| QVQLVETGGGLVQAGGSLRLSCAASGFTIQRYAMGWYRQAPGKEREFVAAITSGGSTYYADSVKGRFTISRDNAKNTVYLQMNSLKPEDTAVYYCATRAVWSSWGRRYDSWGQGTQVTVSS | high polyreactivity |
| QVQLVETGGGLVQAGGSLRLSCAASGFTSLTYAMGWYRQAPGKERELVAAITFSGGSTYYADSVKGRFTISRDNAKNTVYLQMNSLKPEDTAVYYCARDGLWYNAIWEYDYWGLGTQVTVSS | high polyreactivity |
| QVQLVETGGGLVQAGGSLRLSCAASGIIFYGYAMGWYRQAPGKERELVAAITYSGGSTYYADSVKGRFTISRDNAKNTVYLQMNSLKPEDTAVYYCRYDIWVWWSGAYDYWGQGTQVTVSS | low polyreactivity |
| QVQLVETGGGLVQAGGSLRLSCAASGIIIGYYAMGWYRQAPGKEREMVAAINQDGSSTYYADSVKGRFTISRDNAKNTVYLQMNSLTPEDTAVYYCNARGVPRQDARMGYWGQGTQVTVSS | low polyreactivity |
| QVQLVETGGGLVQAGGSLRLSCAASGITFSDNAMGWYIQAPVKERELVADISYGGGNTYYADSVQGRFTISRDNAKYTVYLQMNSLKPEDTAVYYCAAVYYFLWYGYYLALDYWGQGTQVTVSS | high polyreactivity |
| QVQLVETGGGLVQAGGSLRLSCAASGLIFRNNVMGWYRQAPGKERELVAAIRESGGRTYYADSVKGRFTISRDNAKNTVYLQMNSLKPEDTAVYYCAADSRVGFGRLYGYWGQGTQVTVSS | high polyreactivity |
| QVQLVETGGGLVQAGGSLRLSCAASGNMFVTYDMGWYRKAPGKERELVASISWNGGSTNYADSVKGRFTISRDNAKNTVYLQMNSLKPEDTAVYYCAVDYARDKGYPYGYWGQGTQVTVSS | low polyreactivity |
| QVQLVETGGGLVQAGGSLRLSCAASGRIFEIYAMGWYRQAPGKERELVAAIDESGGSTYYADSVKGRFTISRDNGKNTVYLQMNSLKPEDTAVYYCATDDTWTITYGWYWFTYEYWGQCTQVTVSS | low polyreactivity |
| QVQLVETGGGLVQAGGSLRLSCAASGRIFKRNTMGWYRQAPGKEREFVASITFSGGSTNYADSVKGRFTISRDNAKNTVYLQMNSLKPEDTAVYYCAARDYHYSTYDYWGQGTQVTVSS | low polyreactivity |
| QVQLVETGGGLVQAGGSLRLSCAASGRIFRFYDMGWYRQAPGQERELVATINPTGGSTSYADSVKGRFTISRDNAKNTVYLQMNSLNPEDTAVYYCAADSWYSVRKTWSRSGSFPFDYWGQGTQVTVSS | high polyreactivity |
| QVQLVETGGGLVQAGGSLRLSCAASGRIFWLYAMGWYRQAPGKERELVASISSGGTTHYADSVKGRFTISRDNAKNTVYLQMNSLKPEDTAVYYCAVRPYYSWAYYYWGQGTQVTLSS | high polyreactivity |
| QVQLVETGGGLVQAGGSLRLSCAASGRTFARNAMGWYRQAPGKERELVAAISRRGGNTYYADSVKGRFTISRDNAKNTVYLQMNSLKPEDTAVYYCAVRWPSARIPVKLDYWGQGTQVTVSS | high polyreactivity |
| QVQLVETGGGLVQAGGSLRLSCAASGRTFARYAMGWYRQAPGTERELVAAISWGGTRTYYADSVKGRFTISRDNAKNTVYLQMNSLKPEDTAVYYCAATYLYRDQPKWGGFAYTYGLWGQGTQVTVSS | high polyreactivity |
| QVQLVETGGGLVQAGGSLRLSCAASGRTFTRYAMGWYRQAPGKERELVAAISSSGASTYYADSVKGRFTISRDNAKNTVYLQMNSLKPEDTAVYYCAAKQTRPSGFGYWGQGTQVTVSS | high polyreactivity |
